The target in one test is T1, HLA-A*0101 (human).
T1 construct: also called HLA-A1
In words: inhibition of 125I-labeled probe peptide binding to purified HLA-A*0101, gel filtration.

Another test has as its target HLA-A*1101 (human). In words: competition with 125I-labelled probe peptide for purified HLA-A*1101, gel filtration; ratio to standard peptide 940.06 [..] (6.0 nM).
The target in test [1] is T2, HLA-A*0301 (human).
T2 construct: also called HLA-A3
In words: competitive inhibition of 125I-labelled standard peptide binding to purified HLA-A*0301, gel filtration; standard 941.12 [..] (11 nM). For orientation: SEC sorts molecules by how far they enter the pores of the column.

For a further test, the target named is HLA-A*2402 (human). The experiment in a line: inhibition of 125I-labeled probe peptide binding to purified HLA-A*2402, gel filtration.
Test [2] deals with T3, HLA-A*0101 (purified HLA class I molecule) (human).
T3 construct: also called HLA-A1
The experiment in a line: competition with 125I-labelled standard peptide on purified HLA-A*0101, gel filtration.

For test [3], the target named is T4, HLA-A*0301 (human).
T4 construct: also called HLA-A3
In words: competition with 125I-labelled probe peptide for purified HLA-A*0301, gel filtration; ratio to standard peptide 941.12.

What is called IC50 is the concentration that gives 50% inhibition. A higher IC50 goes with weaker potency in that assay. In turn, ETMPNPEGRY (HER2/neu analog peptide) [Her2/neu.280.T2] returned an IC50 with HLA-A*0101 of 3.9 nM. Still for that read-out and setting: the value for ASCVTACPY (HER2/neu peptide, 9-mer) [Her2/neu.293] was 455 nM; that for ATCVTACPY (HER2/neu analog peptide) [Her2/neu.293.T2] was 49 nM.

Consider YLEDVRLVHR (also called Her2/neu.835) [HER2/neu peptide, position 835, 10 amino acids], for which the “relative binding ratio (IC50 of standard peptide / IC50 of test peptide)” value with HLA-A*1101 was 0.0001 ratio. As to KIRKYTMR (Synthetic peptide) [HER2/neu peptide, position 681, 8 amino acids], the “relative binding ratio (IC50 of standard peptide / IC50 of test peptide)” value with HLA-A*0301 [1] was found to be 0.001 ratio. In the test with HLA-A*2402, LYISAWPDSL (HER2/neu peptide) [Her2/neu.410] returned a half-maximal inhibitory concentration (IC50) of 143 nM. As to LYISAWPDSF (HER2/neu analog peptide) [Her2/neu.410.F10], in the test with HLA-A*2402, the half-maximal inhibitory concentration (IC50) is 10 nM. The same measure, in the same setting: for RYTHQSDVF (HER2/neu analog peptide) [Her2/neu.898.Y2F9] the value was 60 nM. In the case of PSGVKPDLSY [HER2/neu peptide, position 601, 10 amino acids], the “relative binding ratio (IC50 of standard peptide / IC50 of test peptide)” value in test [2] turned out to be 0.001 ratio. In the case of LALTLIDTNR (Synthetic peptide) [HER2/neu peptide, position 179, 10 amino acids], the “relative binding ratio (IC50 of standard peptide / IC50 of test peptide)” value with HLA-A*0301 [1] is -0.0002 ratio. As for PLTCSPQPEY [HER2/neu peptide, position 1130, 10 amino acids], in test [2], the “relative binding ratio (IC50 of standard peptide / IC50 of test peptide)” value is 0.0072 ratio. Turning to VVQGNLELTY, the “relative binding ratio (IC50 of standard peptide / IC50 of test peptide)” value in test [2] came to 0.018 ratio. Turning to CYGLGMEHF (HER2/neu analog peptide) [Her2/neu.342.F9], the IC50 in the test with HLA-A*2402 stood at 164 nM. In turn, PTDCCHEQCAA (HER2/neu peptide, 11-mer) [Her2/neu.232] came in with a 50% inhibitory concentration (IC50) with HLA-A*0101 of 58 nM. On the same count and under the same terms, the value for VTACPYNY (HER2/neu peptide) [Her2/neu.296] was 250 nM.

B1: Her2/neu.8 (peptide)
peptide: RWGLLLAL
notes: HER2/neu peptide, 8-mer; also called RWGLLLAL
As to B1, the IC50 with HLA-A*2402 amounted to 480 nM. In turn, AYSLTLQGL (HER2/neu peptide) [Her2/neu.440] came in with a half-inhibitory concentration (IC50) with HLA-A*2402 of 92 nM. AYSLTLQGF (HER2/neu analog peptide) [Her2/neu.440.F9] yielded an IC50 in the test with HLA-A*2402 of 52 nM.

B2: HER2/neu peptide, position 478, 10 amino acids (peptide)
peptide: HTVPWDQLFR
notes: Synthetic peptide; also called Her2/neu.478
In the case of B2, in the test with HLA-A*0301 [1], the “relative binding ratio (IC50 of standard peptide / IC50 of test peptide)” value was found to be 0.0035 ratio. YVMAGVGSPY: the “relative binding ratio (IC50 of standard peptide / IC50 of test peptide)” value in test [2] turned out to be 1.1 ratio. For ETLEEITGY (Synthetic peptide) [HER2/neu peptide, position 401, 9 amino acids (ETLEEITGY)], the “relative binding ratio (IC50 of standard peptide / IC50 of test peptide)” value with HLA-A*0301 [3] was 0.0002 ratio.

For KVLRENTSPK (Synthetic peptide) [HER2/neu peptide, position 753, 10 amino acids], in the test with HLA-A*0301 [1], the “relative binding ratio (IC50 of standard peptide / IC50 of test peptide)” value stood at 0.38 ratio. Turning to VTGASPGGLR (also called Her2/neu.129) [HER2/neu peptide, position 129, 10 amino acids], the “relative binding ratio (IC50 of standard peptide / IC50 of test peptide)” value with HLA-A*1101 is 0.0005 ratio.

B3: HER2/neu peptide, position 42, 9 amino acids (peptide)
peptide: HLDMLRHLY
notes: Synthetic peptide; also called Her2/neu.42
Turning to B3, the “relative binding ratio (IC50 of standard peptide / IC50 of test peptide)” value with HLA-A*0301 [1] turned out to be 0.037 ratio. On to VVQGNLELTY (also called Her2/neu.55), for which the “relative binding ratio (IC50 of standard peptide / IC50 of test peptide)” value in the test with HLA-A*1101 was 0.011 ratio.

As for ILKETELRK (Synthetic peptide) [HER2/neu peptide, position 714, 9 amino acids], the “relative binding ratio (IC50 of standard peptide / IC50 of test peptide)” value with HLA-A*0301 [1] was 0.019 ratio. On to WMIDSECRPR (also called Her2/neu.959) [HER2/neu peptide, position 959, 10 amino acids], for which the “relative binding ratio (IC50 of standard peptide / IC50 of test peptide)” value with HLA-A*1101 was found to be 0.0002 ratio.

In the test with HLA-A*2402, SYGVTVWEL (HER2/neu peptide) [Her2/neu.907] returned an IC50 of 100 nM. In the case of CSKPCARVCY [HER2/neu peptide, position 334, 10 amino acids], the “relative binding ratio (IC50 of standard peptide / IC50 of test peptide)” value in test [2] was found to be 0.0016 ratio. Regarding ETEYHADGGK (Synthetic peptide) [HER2/neu peptide, position 874, 10 amino acids (ETEYHADGGK)], the “relative binding ratio (IC50 of standard peptide / IC50 of test peptide)” value with HLA-A*0301 [3] came out at 0.0003 ratio. As to WMALESILR (also called Her2/neu.888) [HER2/neu peptide, position 888, 9 amino acids], in the test with HLA-A*1101, the “relative binding ratio (IC50 of standard peptide / IC50 of test peptide)” value was -0.0002 ratio. For HSCVDLDDK (Synthetic peptide) [HER2/neu peptide, position 632, 9 amino acids], in the test with HLA-A*0301 [1], the “relative binding ratio (IC50 of standard peptide / IC50 of test peptide)” value is -0.0002 ratio. Take YVLIAHNQVR (also called Her2/neu.83) [HER2/neu peptide, position 83, 10 amino acids]: the “relative binding ratio (IC50 of standard peptide / IC50 of test peptide)” value with HLA-A*1101 stood at 0.0013 ratio. On to LACHQLCAR (Synthetic peptide) [HER2/neu peptide, position 509, 9 amino acids], for which the “relative binding ratio (IC50 of standard peptide / IC50 of test peptide)” value with HLA-A*0301 [1] is -0.0002 ratio. Consider KIPVAIKVLR (Synthetic peptide) [HER2/neu peptide, position 747, 10 amino acids], for which the “relative binding ratio (IC50 of standard peptide / IC50 of test peptide)” value with HLA-A*0301 [1] worked out at 0.0009 ratio. Consider RLLDIDETEY [HER2/neu peptide, position 868, 10 amino acids], for which the “relative binding ratio (IC50 of standard peptide / IC50 of test peptide)” value in test [2] was determined as 1.3 ratio. For VSEFSRMAR (also called Her2/neu.973) [HER2/neu peptide, position 973, 9 amino acids], the “relative binding ratio (IC50 of standard peptide / IC50 of test peptide)” value in the test with HLA-A*1101 turned out to be 0.0021 ratio. With VTAEDGTQR (also called Her2/neu.322) [HER2/neu peptide, position 322, 9 amino acids], the “relative binding ratio (IC50 of standard peptide / IC50 of test peptide)” value with HLA-A*1101 was found to be 0.014 ratio. On to YVMAGVGSPY (also called Her2/neu.772), for which the “relative binding ratio (IC50 of standard peptide / IC50 of test peptide)” value in the test with HLA-A*1101 turned out to be 0.012 ratio. As to ELMTFGAKPY [HER2/neu peptide, position 914, 10 amino acids], in test [2], the “relative binding ratio (IC50 of standard peptide / IC50 of test peptide)” value was found to be 0.0082 ratio. As for DMGDLVDAEEY [HER2/neu peptide, position 1013, 11 amino acids], the “relative binding ratio (IC50 of standard peptide / IC50 of test peptide)” value in test [2] is 0.0027 ratio.

Take ETHLDMLRHLY (also called Her2/neu.40) [HER2/neu peptide, position 40, 11 amino acids]: in test [2], the “relative binding ratio (IC50 of standard peptide / IC50 of test peptide)” value amounted to 0.28 ratio.

For PTHDPSPLQRY (H is used here) [HER2/neu peptide, position 1102, 11 amino acids], the “relative binding ratio (IC50 of standard peptide / IC50 of test peptide)” value in test [2] worked out at 0.016 ratio. For ILIKRRQQK (T0001 prints T at residue 673 (FGTLIK)) [HER2/neu peptide, position 673, 9 amino acids], the “relative binding ratio (IC50 of standard peptide / IC50 of test peptide)” value with HLA-A*0301 [1] is 0.38 ratio. The molecule EADQCVACAHY (HER2/neu peptide) [Her2/neu.580] came in with an IC50 in the test with HLA-A*0101 of 250 nM.

B4: HER2/neu peptide, position 167, 9 amino acids (peptide)
peptide: ILWKDIFHK
notes: Synthetic peptide; also called Her2/neu.167
Consider B4, for which the “relative binding ratio (IC50 of standard peptide / IC50 of test peptide)” value with HLA-A*0301 [1] is 0.28 ratio.

B5: Herw/neu414.Y2F9 (peptide)
peptide: AYPDSLPDF
notes: HER2/neu analog peptide; label printed with a misprint (Herw/neu414)
Take B5: the half-maximal inhibitory concentration (IC50) with HLA-A*2402 stood at 24 nM. This counts as double-digit nanomolar. For the molecule GTDLFEDNY (HER2/neu analog peptide) [Her2/neu.104.D3], in the test with HLA-A*0101, the IC50 amounted to 0.9 nM. For TYLPTNASL (HER2/neu peptide, 9-mer) [Her2/neu.63], the IC50 with HLA-A*2402 amounted to 316 nM. TYLPTNASF (HER2/neu analog peptide) [Her2/neu.63.F9] came in with an IC50 in the test with HLA-A*2402 of 44 nM. Regarding WIPDGENVK (also called Her2/neu.739) [HER2/neu peptide, printed position 730 (taken as 739), 9 amino acids], the “relative binding ratio (IC50 of standard peptide / IC50 of test peptide)” value with HLA-A*1101 came to 0.0001 ratio.

Take VFETLEEITGY (HER2/neu peptide) [Her2/neu.399]: the IC50 with HLA-A*0101 came out at 5560 nM. That is a single-digit micromolar value. For RVLQGLPREY [HER2/neu peptide, position 545, 10 amino acids], the “relative binding ratio (IC50 of standard peptide / IC50 of test peptide)” value in test [2] amounted to 0.0015 ratio.

The molecule GTDMKLRLPY (HER2/neu analog peptide) [Her2/neu.28.Y10] displayed an IC50 in the test with HLA-A*0101 of 50 nM. Turning to LCYQDTILWK (Synthetic peptide) [HER2/neu peptide, position 161, 10 amino acids], in the test with HLA-A*0301 [1], the “relative binding ratio (IC50 of standard peptide / IC50 of test peptide)” value came to 0.0081 ratio. Molecule SYMPIWKF (HER2/neu peptide) [Her2/neu.609] gave an IC50 with HLA-A*2402 of 38 nM. Regarding HTDMLRHLY (HER2/neu analog peptide) [Her2/neu.42.T2], the IC50 in the test with HLA-A*0101 is 1.9 nM. On the same count and under the same terms, the value for ETHLDMLRHLY (HER2/neu peptide) [Her2/neu.40] was 89 nM. Take ETLEEITGYLY (also called Her2/neu.401) [HER2/neu peptide, position 401, 11 amino acids]: the “relative binding ratio (IC50 of standard peptide / IC50 of test peptide)” value in test [2] was 0.44 ratio. Take WMALESILRR (also called Her2/neu.888) [HER2/neu peptide, position 888, 10 amino acids]: in the test with HLA-A*1101, the “relative binding ratio (IC50 of standard peptide / IC50 of test peptide)” value was 0.0016 ratio.
